Data taken from patent US20170266276A1, “Combination Therapy For Treatment of Cancer” (OncoMed Pharmaceuticals, Inc., priority 2014, published 2017).

How the values were obtained:
xenograft models = experiment: Several xenograft models (summary of Examples 1-3); type: in vivo
[1] = test system: OMP-OV19 ovarian tumor cells; experiment: OMP-OV19 ovarian tumor xenograft model, tumor volume; type: in vivo, NOD/SCID mice
Method: FIGS. 1A and 1B. Inhibition of ovarian tumor growth in vivo by a RSPO-LGR pathway inhibitor in combination with a chemotherapeutic agent. OMP-OV19 ovarian tumor cells were injected subcutaneously into NOD/SCID mice. FIG. 1A. Mice were treated with control antibody (-[…]-), paclitaxel (-▪-), a combination of paclitaxel plus anti-RSPO3 antibody 131R010 (also referred to as OMP-131R10) administered the same day (-▴-), or a combination of paclitaxel plus 131R010, wherein 131R010 was administered 2 days prior to paclitaxel (-▾-). Antibodies were dosed at 25 mg/kg and administered every other week. Paclitaxel was dosed at 20 mg/kg and administered every other week. Tumor volumes were measured on the indicated days post-treatment and shown as the mean±SEM. FIG. 1B. Tumor volumes of individual animals in the two combination treatment groups on Day 61.
OncoMed xenograft models described herein were established at OncoMed Pharmaceuticals from minimally passaged, patient-derived tumor specimens. The tumor specimens were examined by a pathologist and classified as a specific tumor type. […]
Single cell suspensions of xenograft OMP-OV19 ovarian tumor cells (1×10^5 cells) were injected subcutaneously into NOD/SCID mice. […] Tumor volumes were measured on the indicated days post-treatment and are shown as the mean±SEM in FIG. 1A.

[2] = test system: OMP-LU77 lung tumor cells; experiment: OMP-LU77 lung tumor xenograft model, tumor volume; type: in vivo, NOD/SCID mice
Method: FIG. 2. Inhibition of lung tumor growth in vivo by a RSPO-LGR pathway inhibitor in combination with a chemotherapeutic agent. OMP-LU77 lung tumor cells were injected subcutaneously into NOD/SCID mice. Mice were treated with control antibody (-▪-), paclitaxel (-▴-), a combination of paclitaxel and anti-RSPO3 antibody 131R010 (also referred to as OMP-131R10) administered the same day (-▾-), or a combination of paclitaxel plus anti-RSPO3 antibody 131R010, wherein 131R010 was administered 2 days prior to paclitaxel (-[…]-). Antibodies were dosed every three weeks at 25 mg/kg. Taxol was dosed every three weeks at 20 mg/kg. Tumor volumes were measured on the indicated days post-treatment.
(§1) OncoMed xenograft models described herein were established at OncoMed Pharmaceuticals from minimally passaged, patient-derived tumor specimens. The tumor specimens were examined by a pathologist and classified as a specific tumor type. OncoMed relies on these classifications unless further analyses are done on any specific tumor and a reclassification is deemed necessary.
Single cell suspensions of xenograft OMP-LU77 lung tumor cells (5×10^4 cells) were injected subcutaneously into NOD/SCID mice. Tumors were allowed to grow 34 days until they reached an average volume of approximately 125 mm^3. […] Tumor volumes were measured on the indicated days post-treatment.

OMP-C8 colon tumor cells = experiment: OMP-C8 colorectal tumor xenograft model, tumor volume; type: in vivo, NOD/SCID mice; details: for tumor growth inhibition, staggered vs same-day dosing: OMP-131R010 25 mg/kg every other week, compared with dosing on the same day
Method: FIGS. 3A and 3B. Inhibition of colorectal tumor growth in vivo by a RSPO-LGR pathway inhibitor in combination with chemotherapeutic agents. OMP-C8 colorectal tumor cells were injected subcutaneously into NOD/SCID mice. FIG. 3A. Mice were treated with control antibody (-▪-), nab-paclitaxel (ABRAXANE) (-Δ-), a combination of nab-paclitaxel and anti-RSPO3 antibody 131R010 administered the same day (-[…]-), or a combination of nab-paclitaxel plus anti-RSPO3 antibody 131R010, wherein 131R010 was administered 2 days prior to nab-paclitaxel (-▾-). Antibodies were dosed every other week at 25 mg/kg. Nab-paclitaxel was dosed once a week at 30 mg/kg. Tumor volumes were measured on the indicated days post-treatment. FIG. 3B. Mice were treated with control antibody (-▪-), 5-FU and irinotecan (-◯-), a combination of 5-FU, irinotecan, and anti-RSPO3 antibody 131R010 administered the same day (-▴-), or a combination of 5-FU and irinotecan plus anti-RSPO3 antibody 131R010, wherein 131R010 was administered 2 days prior to 5-FU and irinotecan (-⋄-). Antibodies were dosed every other week at 25 mg/kg. 5-FU and irinotecan were dosed at 50 mg/kg and 5 mg/kg, respectively, once a week. Tumor volumes were measured on the indicated days post-treatment.
as §1
Single cell suspensions of xenograft OMP-C8 colon tumor cells (5×10^4 cells) were injected subcutaneously into NOD/SCID mice. OMP-C8 colon tumor cells comprise an inactivating mutation in the APC gene and express low levels of RSPO3 (data not shown). Tumors were allowed to grow 23 days until they reached an average volume of approximately 100 mm^3. Tumor-bearing mice were randomized into four groups (n=9 animals per group). […] Tumor volumes were measured on the indicated days post-treatment.

B1: OMP-131R010: anti-RSPO3 antibody; heavy chain variable region SEQ ID NO:38, light chain variable region SEQ ID NO:39; plasmids ATCC PTA-120420 and PTA-120421 (antibody, V domains shown)
VH: QVQLVQSGAEVKKPGASVKVSCKASGYTFTDYSIHWVRQAPGQGLEWIGYIYPSNGDSGYNQKFKNRVTMTRDTSTSTAYMELSRLRSEDTAVYYCATYFANNFDYWGQGTTLTVSS
VL: DIQMTQSPSSLSASVGDRVTITCKASQSVDYDGDSYMNWYQQKPGKAPKLLIYAASNLESGVPSRFSGSGSGTDFTLTISPVQAEDFATYYCQQSNEDPLTFGAGTKLELKR
notes: anti-RSPO3 antibody; plasmids ATCC PTA-120420 and PTA-120421
inhibition of tumor growth, staggered vs co-administration (xenograft models; OMP-131R010 administered prior to a taxane, compared with co-administration): better at inhibiting tumor growth
inhibition of tumor growth by the combination (xenograft models; combination of OMP-131R010 and a taxane): effective at inhibiting tumor growth
tumor size over the course of the treatment (xenograft models; staggered administration of OMP-131R010 and taxane): decreased tumor size
tumor growth inhibition, staggered vs same-day dosing ([1]; OMP-131R010 25 mg/kg every other week, given two days prior to paclitaxel 20 mg/kg every other week, compared with dosing on the same day): greater tumor growth inhibition than dosing on the same day
tumor size over the course of the treatment ([1]; staggered administration: OMP-131R010 25 mg/kg two days prior to paclitaxel 20 mg/kg, every other week): decreased tumor size
tumor growth inhibition, staggered vs same-day dosing ([2]; OMP-131R010 25 mg/kg given two days prior to paclitaxel 20 mg/kg, both once every three weeks, compared with dosing on the same day): greater tumor growth inhibition than dosing on the same day
tumor size over the course of the treatment ([2]; staggered administration: OMP-131R010 25 mg/kg two days prior to paclitaxel 20 mg/kg, once every three weeks): decreased tumor size
tumor growth inhibition, staggered vs same-day dosing (OMP-C8 colon tumor cells; given two days prior to fluorouracil 50 mg/kg and irinotecan 5 mg/kg weekly): did not result in greater tumor growth inhibition than dosing on the same day
tumor growth inhibition, staggered vs same-day dosing (OMP-C8 colon tumor cells; given two days prior to nab-paclitaxel 30 mg/kg weekly): greater tumor growth inhibition than dosing on the same day
efficacy in inhibiting tumor growth, vs combination with a non-mitotic-inhibitor chemotherapeutic agent (OMP-C8 colon tumor cells; OMP-131R010 and nab-paclitaxel administered in a sequential manner, compared with OMP-131R010 plus fluorouracil and irinotecan): greater efficacy in inhibiting tumor growth
